First the molecules themselves.
T1: PD-L2 (coated antigenic protein) (UniProt Q9BQ51 20-220, limits assumed)
T1 sequence (looked up): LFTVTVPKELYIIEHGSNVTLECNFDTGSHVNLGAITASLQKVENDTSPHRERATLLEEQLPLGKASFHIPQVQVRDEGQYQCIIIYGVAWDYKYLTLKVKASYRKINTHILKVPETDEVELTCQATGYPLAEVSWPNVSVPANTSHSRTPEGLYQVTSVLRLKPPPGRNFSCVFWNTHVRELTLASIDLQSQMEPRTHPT

B1: SEQ ID NO 71 (VHH)
VHH: QVQLQESGGGLVQPGGSLRLSCAASGFTFSSYDMSWVRQAPGKGIEWVSVINSGGSNTDYADSVKGRFTISRDNAKNTLYLQMNSLKTEDTAVYYCATAWMGYSDYLDGIARGQGTQVTVSS
notes: pMECS-expressed; also called VHH numbered 71
B2: SEQ ID NO 3 (VHH)
VHH: QVQLQESGGGSVQTGGSLRLSCAASTSLYSYNYMAWFSQAPGKGREGVAAVYVGDGRPYYADSVKGRFTISLDSAKNAVYLQMNSLKPEDTAMYYCAAAPGPLSHNYWYTSANYDYWGQGTQVTVSS
notes: pMECS-expressed; also called anti-PD-L1 nanobody No. 3; VHH numbered 3
B3: SEQ ID NO 81 (VHH)
VHH: B2 VHH with L28I, Y31N, V53I, G54D, P58T, A78T, H105R
notes: pMECS-expressed; also called VHH numbered 81
B4: SEQ ID NO 4 (VHH)
VHH: B2 VHH with T26P, L28I, Y31A, V53I, A78T, S104G
notes: pMECS-expressed; also called anti-PD-L1 nanobody No. 4; VHH numbered 4
B5: SEQ ID NO 85 (VHH)
VHH: B2 VHH with L28I, Y31N, V53I, G54A, G56D, A78T, H105R
notes: pMECS-expressed; also called VHH numbered 85
B6: SEQ ID NO 76 (VHH)
VHH: QVQLQESGGGSVQTGGSLRLSCAASTSIYSNNYMAWFRQVPGKGREGVAAVYIDDGRTYYADSVKGRFTISLDSAKNTVYLQMNSLKPEDTAMYYCAAAPGPLSRHYWYTSANYDYWGPGTQVTVSS
notes: pMECS-expressed; also called VHH numbered 76
B7: SEQ ID NO 82 (VHH)
VHH: B6 VHH with A23T, R38S, V40A, T58P, H106N, P119Q
notes: pMECS-expressed; also called VHH numbered 82
B8: SEQ ID NO 84 (VHH)
VHH: B6 VHH with Y29D, V40A, T58P
notes: pMECS-expressed; also called VHH numbered 84
B9: SEQ ID NO 68 (VHH)
VHH: B2 VHH with A23T, A24C, L28I, Y31N, V53I, A78T
notes: pMECS-expressed; also called VHH numbered 68
B10: SEQ ID NO 86 (VHH)
VHH: B2 VHH with E6D, L28I, Y31I, V53T, A78T, H105R
notes: pMECS-expressed; also called VHH numbered 86
B11: SEQ ID NO 77 (VHH)
VHH: B6 VHH with A23T, R38S, V40A, T58P, H106N, P119Q
notes: pMECS-expressed; also called VHH numbered 77
B12: SEQ ID NO 80 (VHH)
VHH: B6 VHH with A23V, R38S, V40A, T58P, H106S, P119Q
notes: pMECS-expressed; also called VHH numbered 80
B13: SEQ ID NO 83 (VHH)
VHH: B2 VHH with S11L, L28I, Y31N, M34L, V53I, T69P, D73N, K76Q, A78K, H105R
notes: pMECS-expressed; also called VHH numbered 83
B14: SEQ ID NO 69 (VHH)
VHH: B2 VHH with L28I, Y31N, V53I, A78T
notes: pMECS-expressed; also called VHH numbered 69
B15: SEQ ID NO 78 (VHH)
VHH: B2 VHH with A78T
notes: pMECS-expressed; also called VHH numbered 78
B16: SEQ ID NO 75 (VHH)
VHH: B6 VHH with V40A, D54G, T58P, V64A, Q82H
notes: pMECS-expressed; also called VHH numbered 75
B17: SEQ ID NO 20 (VHH)
VHH: QVQLQESGGGLVQPGGSLRLSCAASGFTGSIYAMSWVRQAPGKGLEWVSTISSSGGRRFYADSVKGRFTISRDNAKNTLYLQLNSLKTEDTAMYYCARCSDIYCDNGASYRGQGTQVTVSS
notes: pMECS-expressed; also called VHH numbered 20
B18: SEQ ID NO 58 (VHH)
VHH: B17 VHH with A24L, G29S, S30T, S52N, S54D, R57Y, F59Y, L86P, D105Y, A108P
notes: pMECS-expressed; also called VHH numbered 58
B19: SEQ ID NO 70 (VHH)
VHH: B17 VHH with G29F, Y32R, S52N, S54G, G56D, R57S, F59Y, L79M, A97V, D105Y
notes: pMECS-expressed; also called VHH numbered 70
B20: SEQ ID NO 61 (VHH)
VHH: QVQLQESGGGLVQPGGSLRLSCAASGFDFSSRAMSWVRQAPGKGLEWVSTINSGGGSRYYADSVKGRFTTSRDNAKNTLALQLNSLKTEDTAMYYCARCSDIYCDNGAWYRGQGTQVTVSS
notes: pMECS-expressed; also called VHH numbered 61
B21: SEQ ID NO 74 (VHH)
VHH: B17 VHH with L11S, P14A
notes: pMECS-expressed; also called VHH numbered 74
B22: SEQ ID NO 45 (VHH)
VHH: B17 VHH with G29F, Y32K, S52D, S54G, F59Y, N84S, Y95F, D105Y
notes: pMECS-expressed; also called VHH numbered 45
B23: SEQ ID NO 50 (VHH)
VHH: QVQLQESGGGLVQPGGSLRLSCIASGFTFSIMAMSWVRQAPGKGLEWVSTINSDGGKTYYADSVKGRFTISRDNAKNTLYLQLNSLRTEDMAMYYCRRCADIYCSGSGGWTGQGTQVTVSS
notes: pMECS-expressed; also called VHH numbered 50
B24: SEQ ID NO 65 (VHH)
VHH: B23 VHH with I23A, M32L, V48I, S53N, D54S, K57T, Y59F, M91T, A100T, G106L
notes: pMECS-expressed; also called VHH numbered 65
B25: SEQ ID NO 79 (VHH)
VHH: QVQLQESGGGLVQPGGSLRLSCAASGLPFSIIAMSWVRQAPGKGIEWVSTINSGGGTTHYADSVKGRFTISRDNAKNTLYLQLNSLRTEDTAVYYCRRCADIYCSGSGGWTGLGTQVTVSS
notes: pMECS-expressed; also called VHH numbered 79
B26: SEQ ID NO 72 (VHH)
VHH: B25 VHH with A23E, I45L, G54D, V93M, A100T, L113Q
notes: pMECS-expressed; also called VHH numbered 72
B27: SEQ ID NO 73 (VHH)
VHH: B25 VHH with A23E, I45L, G54D, V93M, A100T, S107F, L113Q
notes: pMECS-expressed; also called VHH numbered 73
B28: SEQ ID NO 34 (VHH)
VHH: QVQLQESGGGSVQAGGSLRLSCAASGYTRSLYCMGWFRQAPGREREGVAHVYTGDGSPYYADSVKGRFTISQDNGESTLYLQMNNLKPEDTAMYYCAAGTSALSRPYGPISYGYWYWGQGTQVTVSS
notes: pMECS-expressed; also called VHH numbered 34
B29: SEQ ID NO 18 (VHH)
VHH: QVQLQESGGGSVQAGGSLRLSCAASGYTYSSDGMGWFRQTPGKEREGVAAISPTGRRTEYADSVKGRFTISRDNNKNMLSLQMNSLKPEDTGMYYCAREGSWSFSLANSAVRSWGQGTQVTVSS
notes: pMECS-expressed; also called VHH numbered 18

Positions count from the first letter of the chain named.

One test deals with T2, human PD-L1 protein (coated antigen) (human, UniProt Q9NZQ7 19-238, limits assumed).
T2 construct: Construct not described; also called PD-L1 antigen; antigenic protein PD-L1
T2 sequence (Q9NZQ7 19-238 limits assumed): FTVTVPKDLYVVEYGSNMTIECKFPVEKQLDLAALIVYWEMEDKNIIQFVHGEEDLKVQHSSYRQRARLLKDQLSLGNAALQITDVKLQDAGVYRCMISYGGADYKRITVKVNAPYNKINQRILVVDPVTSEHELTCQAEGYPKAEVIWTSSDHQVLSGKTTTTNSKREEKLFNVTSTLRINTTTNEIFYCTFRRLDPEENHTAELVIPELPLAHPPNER
The test is described as follows: PE-ELISA, crude extract on coated PD-L1. Here is the method: (1) From the cell culture dishes containing phage after 3-4 rounds of screening in Example 2, 1000 individual colonies were selected and inoculated into TB medium containing 100 μg/ml of ampicillin (1 liter of TB medium contains 2.3 g of potassium dihydrogen phosphate, 12.52 g of dipotassium hydrogen phosphate, 12 g of peptone, 24 g of yeast extract, 4 ml of glycerol), after growth to log phase, add a final concentration of […] of IPTG, culture at 28° C. overnight. (2) The crude antibody was obtained by the infiltration method, and the antibody was transferred to an antigen-coated ELISA plate and placed at room temperature for 1 hour. (3) Unbound antibody was washed away with PBST, and a mouse anti-HA tag antibody (anti-mouse anti-HA antibody, purchased from Beijing Kangwei Century Biotechnology Co., Ltd.) was added and placed at room temperature for 1 hour. (4) Unbound antibody was washed away with PBST, and anti-mouse alkaline phosphatase conjugate (goat anti-mouse alkaline phosphatase-labeled antibody, purchased from Amytech Co., Ltd.) was added and placed at room temperature for 1 hour. (5) Wash the unbound antibody with PBST, add alkaline phosphatase coloring solution, and read the absorbance at 405 nm on an ELISA apparatus. (6) When the OD value of the sample well is more than 3 times the OD value of the control well (Ratio+/−>3), it is judged as a positive clone hole. (7) The bacteria of the positive clone well were shaken in a LB liquid containing 100 μg per ml to extract a plasmid and perform sequencing.
(An ELISA detects its analyte on a solid surface through an enzyme-linked reagent.)
As for B1, the “OD ratio (experimental group (A405 nm)/control group (A405 nm))” value was more than 20.

Consider B2, for which the “OD ratio (experimental group (A405 nm)/control group (A405 nm))” value is more than 20.

Consider B3, for which the “OD ratio (experimental group (A405 nm)/control group (A405 nm))” value is more than 20.

Regarding B4, the “OD ratio (experimental group (A405 nm)/control group (A405 nm))” value is more than 20.

As for B5, the “OD ratio (experimental group (A405 nm)/control group (A405 nm))” value is more than 20.

For B6, the “OD ratio (experimental group (A405 nm)/control group (A405 nm))” value is more than 20.

Take B7: the “OD ratio (experimental group (A405 nm)/control group (A405 nm))” value is more than 20.

Turning to B8, the “OD ratio (experimental group (A405 nm)/control group (A405 nm))” value is more than 20.

B9: the “OD ratio (experimental group (A405 nm)/control group (A405 nm))” value is more than 20.

Consider B10, for which the “OD ratio (experimental group (A405 nm)/control group (A405 nm))” value is more than 20.

With B11, the “OD ratio (experimental group (A405 nm)/control group (A405 nm))” value was more than 20.

For the molecule B12, the “OD ratio (experimental group (A405 nm)/control group (A405 nm))” value was more than 20.

For the molecule B13, the “OD ratio (experimental group (A405 nm)/control group (A405 nm))” value was more than 20.

On to B14, for which the “OD ratio (experimental group (A405 nm)/control group (A405 nm))” value is more than 20.

As to B15, the “OD ratio (experimental group (A405 nm)/control group (A405 nm))” value was more than 20.

Consider B16, for which the “OD ratio (experimental group (A405 nm)/control group (A405 nm))” value is more than 20.

Turning to B17, the “OD ratio (experimental group (A405 nm)/control group (A405 nm))” value was more than 20.

In the case of B18, the “OD ratio (experimental group (A405 nm)/control group (A405 nm))” value was more than 20.

For B19, the “OD ratio (experimental group (A405 nm)/control group (A405 nm))” value was more than 20.

As for B20, the “OD ratio (experimental group (A405 nm)/control group (A405 nm))” value is more than 20.

For B21, the “OD ratio (experimental group (A405 nm)/control group (A405 nm))” value was more than 20.

For the molecule B22, the “OD ratio (experimental group (A405 nm)/control group (A405 nm))” value is more than 20.

As for B23, the “OD ratio (experimental group (A405 nm)/control group (A405 nm))” value is more than 20.

Take B24: the “OD ratio (experimental group (A405 nm)/control group (A405 nm))” value was more than 20.

As to B25, the “OD ratio (experimental group (A405 nm)/control group (A405 nm))” value is more than 20.

For B26, the “OD ratio (experimental group (A405 nm)/control group (A405 nm))” value is more than 20.

In the case of B27, the “OD ratio (experimental group (A405 nm)/control group (A405 nm))” value was more than 20.

Consider B28, for which the “OD ratio (experimental group (A405 nm)/control group (A405 nm))” value is more than 20.

In the case of B29, the “OD ratio (experimental group (A405 nm)/control group (A405 nm))” value is more than 20.

In a further test the target is T2, human PD-L1 protein (coated antigen). Put plainly: ELISA, purified nanobody 10 ug/mL, coated PD-L1 against coated PD-L2. Here is the method:
(§1) (1) Coated antigenic proteins PD-L1 and PD-L2: 0.5 μg per well (5 μg/mL, 100 μL), packaged NaHCO₃ (100 mM, pH8.2) was used as a blank control and overnight at 4° C. (2) Wash the cells three times with PBST the next day, add 200 μL of 1% BSA to block at room temperature for 2 hours. (3) Each purified nanobody was diluted to 10 μg/mL, and 100 pt of each of the purified nanobodies was incubated with the coated PD-L1, PD-L2 and the blank control group, and reacted at room temperature for 1 hour. (4) Unbound antibody was washed away with PBST, and 100 μL of mouse anti-HA tag antibody (1:2000 dilution) was added and placed at room temperature for 1 hour. (5) Unbound antibody was washed away with PBST, and anti-mouse alkaline phosphatase conjugate (1:2000 dilution) was added and placed at room temperature for 1 hour. (6) Wash the unbound antibody with PBST, add alkaline phosphatase coloring solution, and read the absorbance at 405 nm on an ELISA apparatus. The specificity of the nanobody was judged based on the absorption value.
For the molecule B2, the “OD ratio (PD-L1/PD-L2)” value came out at 21.

As for B4, the “OD ratio (PD-L1/PD-L2)” value stood at 25.6.

In another test the target is T1, PD-L2 (coated antigenic protein). The test is described as follows: ELISA, purified nanobody 10 ug/mL on coated PD-L2, anti-HA detection. Here is the method:
as §1
Regarding B2, the “ELISA absorbance (A405 nm)” value was found to be 0.112 A405 nm.

B4: the “ELISA absorbance (A405 nm)” value came to 0.137 A405 nm.

The target of the next test is T2, human PD-L1 protein (coated antigen). The test is described as follows: ELISA, purified nanobody 10 ug/mL on coated PD-L1, anti-HA detection. As to the method:
as §1
With B2, the “ELISA absorbance (A405 nm)” value is 2.36 A405 nm.

Regarding B4, the “ELISA absorbance (A405 nm)” value was 3.51 A405 nm.

These data come from US20190177416A1 (NANOMAB TECHNOLOGY, published 2019).
